In PMC7376022, “ARHGAP10, which encodes Rho GTPase-activating protein 10, is a novel gene for schizophrenia risk” (Translational Psychiatry, 2020):

Biological target: T1, GST-RhoA (p.Q63L) (UniProt P61586 1-193, p.Q63L)
T1 construct: RhoA, small GTPase, constitutively active mutant Q63L; also called GST-RhoA (Q63L); constitutively active RhoA; source: expressed in HEK293 cells
Assay: pull-down; GST binding assay; GST-RhoA proteins as bait, GFP-tagged ARHGAP10 as prey; input and bound proteins on immunoblots, densitometry with Odyssey Clx; three independent experiments

T1 sequence (P61586 whole entry Q63L): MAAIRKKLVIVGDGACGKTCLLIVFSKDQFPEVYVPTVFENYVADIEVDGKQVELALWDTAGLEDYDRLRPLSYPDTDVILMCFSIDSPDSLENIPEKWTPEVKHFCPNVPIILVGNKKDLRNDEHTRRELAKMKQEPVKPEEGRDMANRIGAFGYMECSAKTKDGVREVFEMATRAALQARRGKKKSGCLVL

- band intensity percentage relative to the corresponding bait: 15.8%
B1: GFP-tagged human ARHGAP10 (p.S490P) mutant (natural protein, UniProt A1A4S6 1-786, looked up)
chain: MGLQPLEFSDCYLDSPWFRERIRAHEAELERTNKFIKELIKDGKNLIAATKSLSVAQRKFAHSLRDFKFEFIGDAVTDDERCIDASLREFSNFLKNLEEQREIMALSVTETLIKPLEKFRKEQLGAVKEEKKKFDKETEKNYSLIDKHLNLSAKKKDSHLQEADIQVEQNRQHFYELSLEYVCKLQEIQERKKFEFVEPMLSFFQGMFTFYHQGHELAKDFNHYKMELQINIQNTRNRFEGTRSEVEELMNKIRQNPKDHKRASQFTAEGYLYVQEKRPAPFGSSWVKHYCMYRKAAKKFNMIPFEHRSGGKLGDGEVFFLKECTKRHTDSIDRRFCFDIEAADRPGVSLTMQAFSEEERKQWLEALGGKEALSHSFNTAIIPRPEGNAQLDKMGFTIIRKCISAVETRGINDQGLYRVVGVSSKVQRLLSMLMDVKTCNEVDLENSADWEVKTITSALKQYLRSLPEPLMTYELHGDFIVPAKSGSPEPRVNAIHFLVHKLPEKNKEMLDILVKHLTNVSNHSKQNLMTVANLGVVFGPTLMRPQEETVAALMDLKFQNIVVEILIENHEKIFRTPPDTTFPEPTCLSASPPNAPPRQSKRQGQRTKRPVAVYNLCLELEDGDNPYPSKEDTPTSSLDSLSSPSPVTTAVPGPPGPDKNHLLADGGSFGDWASTIPGQTRSSMVQWLNPQSPTTTSSNSAVTPLSPGSSPFPFSPPATVADKPPESIRSRKARAVYPCEAEHSSELSFEIGAIFEDVQTSREPGWLEGTLNGKRGLIPQNYVKLL
notes: also called ARHGAP10 (p.S490P)-GFP; source: expressed in HEK293 cells
